The Human Domainome abundance scans (Beltran et al. 2025)
± gives the uncertainty stated by the source.

Test: abundance fitness (aPCA) (normalised: wild type 0, dead -1); higher = more abundant; growth selection in yeast, the domain comes from the species named
Conditions: Homo sapiens

Substance | abundance fitness
Scaffold attachment factor B2 S31Q, Q14151 | -0.311 ± 0.095
Scaffold attachment factor B2 S31T, Q14151 | -0.225 ± 0.48
Scaffold attachment factor B2 S31Y, Q14151 | -0.629 ± 0.12
Scaffold attachment factor B2 S54A, Q14151 | -0.037 ± 0.077
Scaffold attachment factor B2 S54C, Q14151 | -0.44 ± 0.14
Scaffold attachment factor B2 S54D, Q14151 | -0.1 ± 0.14
Scaffold attachment factor B2 S54E, Q14151 | -0.038 ± 0.11
Scaffold attachment factor B2 S54G, Q14151 | -0.101 ± 0.071
Scaffold attachment factor B2 S54H, Q14151 | -0.191 ± 0.18
Scaffold attachment factor B2 S54I, Q14151 | -0.003 ± 0.21
Scaffold attachment factor B2 S54K, Q14151 | 0.031 ± 0.13
Scaffold attachment factor B2 S54L, Q14151 | -0.167 ± 0.1
Scaffold attachment factor B2 S54M, Q14151 | -0.15 ± 0.2
Scaffold attachment factor B2 S54N, Q14151 | -0.223 ± 0.12
Scaffold attachment factor B2 S54Q, Q14151 | 0.042 ± 0.1
Scaffold attachment factor B2 S54R, Q14151 | 0.071 ± 0.074
Scaffold attachment factor B2 S54T, Q14151 | 0.073 ± 0.11
Scaffold attachment factor B2 S54V, Q14151 | -0.163 ± 0.078
Scaffold attachment factor B2 S54W, Q14151 | -0.261 ± 0.18
Scaffold attachment factor B2 S54Y, Q14151 | -0.358 ± 0.27
Scaffold attachment factor B2 T27A, Q14151 | -0.164 ± 0.1
Scaffold attachment factor B2 T27C, Q14151 | -0.112 ± 0.11

Substance | abundance fitness
Scaffold attachment factor B2 T27D, Q14151 | 0.024 ± 0.18
Scaffold attachment factor B2 T27E, Q14151 | 0.08 ± 0.21
Scaffold attachment factor B2 T27G, Q14151 | -0.128 ± 0.094
Scaffold attachment factor B2 T27I, Q14151 | -0.136 ± 0.19
Scaffold attachment factor B2 T27K, Q14151 | -0.658 ± 0.16
Scaffold attachment factor B2 T27L, Q14151 | -0.074 ± 0.13
Scaffold attachment factor B2 T27M, Q14151 | -0.053 ± 0.15
Scaffold attachment factor B2 T27Q, Q14151 | -0.076 ± 0.19
Scaffold attachment factor B2 T27R, Q14151 | -0.275 ± 0.096
Scaffold attachment factor B2 T27S, Q14151 | -0.175 ± 0.13
Scaffold attachment factor B2 T27V, Q14151 | -0.369 ± 0.15
Scaffold attachment factor B2 T27W, Q14151 | -0.514 ± 0.13
Scaffold attachment factor B2 T49A, Q14151 | -0.181 ± 0.089
Scaffold attachment factor B2 T49C, Q14151 | -0.266 ± 0.12
Scaffold attachment factor B2 T49D, Q14151 | -0.472 ± 0.13
Scaffold attachment factor B2 T49E, Q14151 | -0.26 ± 0.094
Scaffold attachment factor B2 T49F, Q14151 | -0.452 ± 0.1
Scaffold attachment factor B2 T49G, Q14151 | -0.509 ± 0.075
Scaffold attachment factor B2 T49H, Q14151 | -0.647 ± 0.18
Scaffold attachment factor B2 T49I, Q14151 | -0.401 ± 0.2
Scaffold attachment factor B2 T49K, Q14151 | -0.788 ± 0.16
Scaffold attachment factor B2 T49L, Q14151 | -0.155 ± 0.089

Substance | abundance fitness
Scaffold attachment factor B2 T49M, Q14151 | -0.606 ± 0.12
Scaffold attachment factor B2 T49N, Q14151 | -0.807 ± 0.43
Scaffold attachment factor B2 T49P, Q14151 | -0.349 ± 0.084
Scaffold attachment factor B2 T49Q, Q14151 | -0.286 ± 0.11
Scaffold attachment factor B2 T49R, Q14151 | -0.766 ± 0.077
Scaffold attachment factor B2 T49S, Q14151 | -0.159 ± 0.087
Scaffold attachment factor B2 T49V, Q14151 | -0.201 ± 0.07
Scaffold attachment factor B2 T49W, Q14151 | -0.365 ± 0.1
Scaffold attachment factor B2 T49Y, Q14151 | -0.512 ± 0.18
Scaffold attachment factor B2 V35A, Q14151 | -0.2 ± 0.074
Scaffold attachment factor B2 V35C, Q14151 | -0.565 ± 0.12
Scaffold attachment factor B2 V35D, Q14151 | -0.087 ± 0.11
Scaffold attachment factor B2 V35E, Q14151 | 0.129 ± 0.083
Scaffold attachment factor B2 V35F, Q14151 | -0.448 ± 0.099
Scaffold attachment factor B2 V35G, Q14151 | -0.351 ± 0.074
Scaffold attachment factor B2 V35H, Q14151 | -0.57 ± 0.12
Scaffold attachment factor B2 V35L, Q14151 | -0.353 ± 0.078
Scaffold attachment factor B2 V35M, Q14151 | -0.236 ± 0.12
Scaffold attachment factor B2 V35Q, Q14151 | -0.431 ± 0.1
Scaffold attachment factor B2 V35R, Q14151 | -0.438 ± 0.067
Scaffold attachment factor B2 V35S, Q14151 | -0.184 ± 0.089
Scaffold attachment factor B2 V35T, Q14151 | -0.075 ± 0.084

Substance | abundance fitness
Scaffold attachment factor B2 V35W, Q14151 | -0.684 ± 0.083
Scaffold attachment factor B2 V55A, Q14151 | -0.052 ± 0.095
Scaffold attachment factor B2 V55C, Q14151 | -0.294 ± 0.12
Scaffold attachment factor B2 V55D, Q14151 | -0.007 ± 0.1
Scaffold attachment factor B2 V55E, Q14151 | 0.086 ± 0.097
Scaffold attachment factor B2 V55F, Q14151 | -0.748 ± 0.29
Scaffold attachment factor B2 V55G, Q14151 | -0.438 ± 0.076
Scaffold attachment factor B2 V55H, Q14151 | -0.583 ± 0.15
Scaffold attachment factor B2 V55I, Q14151 | -0.668 ± 0.27
Scaffold attachment factor B2 V55K, Q14151 | -0.267 ± 0.094
Scaffold attachment factor B2 V55L, Q14151 | -0.167 ± 0.14
Scaffold attachment factor B2 V55M, Q14151 | -0.02 ± 0.23
Scaffold attachment factor B2 V55P, Q14151 | -0.643 ± 0.13
Scaffold attachment factor B2 V55Q, Q14151 | -0.173 ± 0.1
Scaffold attachment factor B2 V55R, Q14151 | -0.326 ± 0.075
Scaffold attachment factor B2 V55S, Q14151 | -0.496 ± 0.11
Scaffold attachment factor B2 V55W, Q14151 | -0.811 ± 0.1
Scaffold attachment factor B2 V55Y, Q14151 | -0.605 ± 0.18
Scaffold attachment factor B2 V64A, Q14151 | -0.227 ± 0.096
Scaffold attachment factor B2 V64C, Q14151 | -0.312 ± 0.14
Scaffold attachment factor B2 V64D, Q14151 | -0.232 ± 0.18
Scaffold attachment factor B2 V64E, Q14151 | -0.109 ± 0.098

Substance | abundance fitness
Scaffold attachment factor B2 V64F, Q14151 | -0.326 ± 0.12
Scaffold attachment factor B2 V64G, Q14151 | -0.294 ± 0.091
Scaffold attachment factor B2 V64H, Q14151 | -0.173 ± 0.1
Scaffold attachment factor B2 V64I, Q14151 | -0.271 ± 0.14
Scaffold attachment factor B2 V64K, Q14151 | -0.035 ± 0.14
Scaffold attachment factor B2 V64L, Q14151 | 0.006 ± 0.098
Scaffold attachment factor B2 V64M, Q14151 | -0.013 ± 0.13
Scaffold attachment factor B2 V64N, Q14151 | -0.418 ± 0.21
Scaffold attachment factor B2 V64Q, Q14151 | -0.141 ± 0.16
Scaffold attachment factor B2 V64R, Q14151 | -0.14 ± 0.09
Scaffold attachment factor B2 V64S, Q14151 | -0.242 ± 0.084
Scaffold attachment factor B2 V64T, Q14151 | -0.123 ± 0.11
Scaffold attachment factor B2 V64W, Q14151 | -0.025 ± 0.086
Scaffold attachment factor B2 V64Y, Q14151 | -0.274 ± 0.31
Tyrosine-protein kinase Lck D77E, P06239 | -0.02 ± 0.13
Tyrosine-protein kinase Lck E83K, P06239 | -0.049 ± 0.12
Tyrosine-protein kinase Lck E92N, P06239 | -0.047 ± 0.14
Tyrosine-protein kinase Lck E96D, P06239 | 0.069 ± 0.16
Tyrosine-protein kinase Lck E108T, P06239 | 0.034 ± 0.12
Tyrosine-protein kinase Lck F110Y, P06239 | 0.001 ± 0.19
Tyrosine-protein kinase Lck F113S, P06239 | 0.094 ± 0.071
Tyrosine-protein kinase Lck F115Y, P06239 | 0.148 ± 0.12
